Experimental data published in article PMC4395114 (PLoS Pathogens, 2015).

Target: the molecule itself
Assay: SEC + other: negative stain electron microscopy

B1: RNA-free recombinant WT NP (NΔ7NP, C-terminal His tag), influenza A/WSN/33 (natural protein)
chain: RSYEQMETDGERQNATEIRASVGKMIGGIGRFYIQMCTELKLSDYEGRLIQNSLTIERMVLSAFDERRNKYLEEHPSAGKDPKKTGGPIYRRVDGKWMRELILYDKEEIRRIWRQANNGDDATAGLTHMMIWHSNLNDATYQRTRALVRTGMDPRMCSLMQGSTLPRRSGAAGAAVKGVGTMVMELIRMIKRGINDRNFWRGENGRRTRIAYERMCNILKGKFQTAAQRAMVDQVRESRNPGNAEFEDLIFLARSALILRGSVAHKSCLPACVYGPAVASGYDFEREGYSLVGIDPFRLLQNSQVYSLIRPNENPAHKSQLVWMACHSAAFEDLRVSSFIRGTKVVPRGKLSTRGVQIASNENMETMESSTLELRSRYWAIRTRSGGNTNQQRASSGQISIQPTFSVQRNLPFDRPTIMAAFTGNTEGRTSDMRTEIIRLMESARPEDVSFQGRGVFELSDEKAASPIVPSFDMSNEGSYFFGDNAEEYDN
stoichiometry N: 3 to 6
